PMC10294536

What was measured:
Details in all cases: reference: EGFP-HURP wild type; sites S725
GRASP65 = GRASP65 (UniProt Q9BQQ3); assay: co-IP of EGFP-HURP with GRASP65
GM130 = GM130 (UniProt Q08379); assay: co-IP of EGFP-HURP with GM130
GP73 = GP73 (UniProt Q8NBJ4); assay: co-IP of EGFP-HURP with GP73

Measured: binding against the reference

HURP (from UniProt Q15398) EGFP-HURP 725A
lost: all assays above
